Reference: the supplement of paper PMC9112550, “Optimization of the antimicrobial peptide Bac7 by deep mutational scanning” (BMC Biology, 2022)

Tested on: Escherichia coli TOP10
Test: shrunken log2 fold change of peptide-encoding DNA abundance (4.5 h post-induction vs induction); higher = less antimicrobial activity (less host growth inhibition)
Conditions: time post-induction: 4.5 h; library: site-saturation at positions 5, 18, 19, 20
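Also: peptides expressed intracellularly from a pBAD plasmid library in pooled LB shake-flask culture, induced with 0.3% L-arabinose, DNA abundance read by NGS, three biological replicates, DESeq2 with apeglm shrinkage.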

Sequence	shrunken log2 fold change
RRIRDRPPRLPRPRPRPQWRPRP	0.21
RRIRYRPPRLPRPRPRPEVYPRP	-0.0597
RRIRWRPPRLPRPRPRPDFWPRP	0.582
RRIRTRPPRLPRPRPRPPQWPRP	0.274
RRIRHRPPRLPRPRPRPSWMPRP	-0.419
RRIRCRPPRLPRPRPRPRITPRP	-0.212
RRIRMRPPRLPRPRPRPLPKPRP	1.11
RRIRFRPPRLPRPRPRPEYEPRP	-0.211
RRIRQRPPRLPRPRPRPASGPRP	-0.00438
RRIRNRPPRLPRPRPRPIACPRP	-0.00434
RRIRVRPPRLPRPRPRPIAPPRP	0.328
RRIRRRPPRLPRPRPRPIEAPRP	-0.137
RRIRRRPPRLPRPRPRPYNNPRP	-0.76
RRIRRRPPRLPRPRPRPRTKPRP	0.0753
RRIRVRPPRLPRPRPRPTLGPRP	0.213
RRIRQRPPRLPRPRPRPCHIPRP	-0.0316
RRIRCRPPRLPRPRPRPMYEPRP	-0.264
RRIRRRPPRLPRPRPRPADMPRP	-0.0139
RRIRFRPPRLPRPRPRPSIIPRP	-0.279
RRIRNRPPRLPRPRPRPHKRPRP	-0.263
RRIRKRPPRLPRPRPRPPRSPRP	2.69
RRIRIRPPRLPRPRPRPTYVPRP	-0.0344
RRIRPRPPRLPRPRPRPEMGPRP	0.268
RRIRARPPRLPRPRPRPTVYPRP	-0.00696
RRIRKRPPRLPRPRPRPKIGPRP	0.295

Sequence	shrunken log2 fold change
RRIRMRPPRLPRPRPRPSIIPRP	0.0973
RRIRMRPPRLPRPRPRPQAFPRP	0.0522
RRIRMRPPRLPRPRPRPFMWPRP	-0.128
RRIRCRPPRLPRPRPRPTEEPRP	0.325
RRIRKRPPRLPRPRPRPFLRPRP	0.13
RRIRERPPRLPRPRPRPMEAPRP	-0.261
RRIRGRPPRLPRPRPRPWGAPRP	0.444
RRIRLRPPRLPRPRPRPNWEPRP	-0.111
RRIRCRPPRLPRPRPRPTGVPRP	0.619
RRIRTRPPRLPRPRPRPHVIPRP	-0.192
RRIRRRPPRLPRPRPRPGGVPRP	0.483
RRIRWRPPRLPRPRPRPVKNPRP	0.238
RRIRNRPPRLPRPRPRPVWCPRP	-0.226
RRIRLRPPRLPRPRPRPDHPPRP	-0.123
RRIRSRPPRLPRPRPRPYAVPRP	-0.137
RRIRYRPPRLPRPRPRPFAWPRP	-0.0365
RRIRWRPPRLPRPRPRPHSCPRP	-0.0379
RRIRWRPPRLPRPRPRPLGFPRP	0.239
RRIRARPPRLPRPRPRPDARPRP	0.355
RRIRPRPPRLPRPRPRPMFNPRP	-0.648
RRIRDRPPRLPRPRPRPHIKPRP	-0.598
RRIRQRPPRLPRPRPRPREYPRP	-0.0403
RRIRNRPPRLPRPRPRPDVCPRP	-0.00695
RRIRQRPPRLPRPRPRPQPVPRP	0.00167
RRIRIRPPRLPRPRPRPFSWPRP	0.0705

Sequence	shrunken log2 fold change
RRIRKRPPRLPRPRPRPRHAPRP	0.727
RRIRIRPPRLPRPRPRPIFDPRP	-0.237
RRIRWRPPRLPRPRPRPYHLPRP	-0.146
RRIRWRPPRLPRPRPRPCNPPRP	-0.00159
RRIRKRPPRLPRPRPRPHCWPRP	0.17
RRIRMRPPRLPRPRPRPFILPRP	-0.41
RRIRERPPRLPRPRPRPPALPRP	0.114
RRIRLRPPRLPRPRPRPSWHPRP	0.25
RRIRFRPPRLPRPRPRPAWPPRP	0.268
RRIRLRPPRLPRPRPRPVHVPRP	-0.0937
RRIRTRPPRLPRPRPRPSCQPRP	-0.21
RRIRHRPPRLPRPRPRPNNEPRP	-0.724
RRIRVRPPRLPRPRPRPGPTPRP	0.448
RRIRFRPPRLPRPRPRPMFGPRP	0.312
RRIRMRPPRLPRPRPRPPSIPRP	0.411
RRIRQRPPRLPRPRPRPTNNPRP	-0.547
RRIRVRPPRLPRPRPRPSHVPRP	-0.0313
RRIRARPPRLPRPRPRPYCLPRP	-0.729
RRIRPRPPRLPRPRPRPLRIPRP	0.0628
RRIRDRPPRLPRPRPRPPLCPRP	0.223
RRIRPRPPRLPRPRPRPCAKPRP	-0.0518
RRIRPRPPRLPRPRPRPFNQPRP	-0.695
RRIRDRPPRLPRPRPRPAFRPRP	0.293
RRIRPRPPRLPRPRPRPQRKPRP	0.113
RRIRRRPPRLPRPRPRPEDMPRP	0.296

Sequence	shrunken log2 fold change
RRIRRRPPRLPRPRPRPNQWPRP	0.128
RRIRKRPPRLPRPRPRPNMHPRP	0.19
RRIRLRPPRLPRPRPRPTNDPRP	-0.288
RRIRERPPRLPRPRPRPAEVPRP	-0.0184
RRIRCRPPRLPRPRPRPSEPPRP	-0.184
RRIRRRPPRLPRPRPRPNHEPRP	-0.0399
RRIRKRPPRLPRPRPRPPQMPRP	0.278
RRIRERPPRLPRPRPRPFAVPRP	-0.759
RRIRERPPRLPRPRPRPRRFPRP	0.158
RRIRERPPRLPRPRPRPSAEPRP	0.0172
RRIRPRPPRLPRPRPRPHHLPRP	-0.0444
RRIRYRPPRLPRPRPRPCVLPRP	-0.00875
RRIRTRPPRLPRPRPRPVRKPRP	0.00119
RRIRNRPPRLPRPRPRPVYYPRP	-0.562
RRIRARPPRLPRPRPRPKSQPRP	0.286
RRIRKRPPRLPRPRPRPDCDPRP	0.095
RRIRQRPPRLPRPRPRPGPEPRP	0.0674
RRIRHRPPRLPRPRPRPFAGPRP	-0.205
RRIRDRPPRLPRPRPRPHTHPRP	-0.0285
RRIRFRPPRLPRPRPRPTRPPRP	0.776
RRIRYRPPRLPRPRPRPFVFPRP	-0.95
RRIRGRPPRLPRPRPRPDNMPRP	-0.185
RRIRFRPPRLPRPRPRPMKIPRP	0.25
RRIRLRPPRLPRPRPRPCQPPRP	-0.0919
RRIRARPPRLPRPRPRPPSSPRP	0.342

Sequence	shrunken log2 fold change
RRIRFRPPRLPRPRPRPMPPPRP	0.55
RRIRYRPPRLPRPRPRPVTDPRP	-0.418
RRIRHRPPRLPRPRPRPTRRPRP	0.271
RRIRNRPPRLPRPRPRPDVAPRP	0.285
RRIRSRPPRLPRPRPRPIFIPRP	-0.329
RRIRNRPPRLPRPRPRPWARPRP	0.0712
RRIRSRPPRLPRPRPRPEGWPRP	1.18
RRIRGRPPRLPRPRPRPVQHPRP	0.542
RRIRNRPPRLPRPRPRPSAMPRP	-0.188
RRIRSRPPRLPRPRPRPKKIPRP	0.139
RRIRYRPPRLPRPRPRPVENPRP	-0.0898
RRIRTRPPRLPRPRPRPIACPRP	-0.0974
RRIRTRPPRLPRPRPRPDLYPRP	0.0261
RRIRIRPPRLPRPRPRPRLAPRP	0.237
RRIRGRPPRLPRPRPRPVPEPRP	1.98
RRIRFRPPRLPRPRPRPLLKPRP	-0.321
RRIRCRPPRLPRPRPRPCGSPRP	-0.0815
RRIRHRPPRLPRPRPRPRKMPRP	-0.246
RRIRWRPPRLPRPRPRPASDPRP	0.342
RRIRERPPRLPRPRPRPFWEPRP	-0.56
RRIRTRPPRLPRPRPRPDEDPRP	0.0169
RRIRNRPPRLPRPRPRPDMNPRP	-0.0522
RRIRSRPPRLPRPRPRPKIVPRP	-0.265
RRIRRRPPRLPRPRPRPGKWPRP	0.152
RRIRLRPPRLPRPRPRPLEMPRP	0.203

Sequence	shrunken log2 fold change
RRIRYRPPRLPRPRPRPENVPRP	-0.00208
RRIRPRPPRLPRPRPRPQMTPRP	2.25
RRIRVRPPRLPRPRPRPHTDPRP	-0.141
RRIRQRPPRLPRPRPRPYYQPRP	-0.284
RRIRHRPPRLPRPRPRPFARPRP	-0.107
RRIRDRPPRLPRPRPRPDNKPRP	-0.413
RRIRMRPPRLPRPRPRPSIRPRP	0.0426
RRIRRRPPRLPRPRPRPIVKPRP	-0.0348
RRIRNRPPRLPRPRPRPTRDPRP	0.386
RRIRKRPPRLPRPRPRPEMMPRP	0.113
RRIRPRPPRLPRPRPRPSGNPRP	-0.273
RRIRCRPPRLPRPRPRPVVIPRP	-0.223
RRIRERPPRLPRPRPRPAQNPRP	0.269
RRIRSRPPRLPRPRPRPETDPRP	0.392
RRIRSRPPRLPRPRPRPRVCPRP	0.366
RRIRCRPPRLPRPRPRPECGPRP	0.436
RRIRTRPPRLPRPRPRPPCLPRP	-0.0659
RRIRIRPPRLPRPRPRPIIEPRP	-0.0807
RRIRFRPPRLPRPRPRPWIKPRP	-0.187
RRIRNRPPRLPRPRPRPYDSPRP	-0.284
RRIRHRPPRLPRPRPRPYAMPRP	-0.416
RRIRIRPPRLPRPRPRPTDHPRP	-0.368
RRIRRRPPRLPRPRPRPYAPPRP	-0.0565
RRIRHRPPRLPRPRPRPWITPRP	-0.118
RRIRQRPPRLPRPRPRPFRYPRP	-0.245
